Measured values reported in patent publication US20230331821A1 (VIR BIOTECHNOLOGY, published 2023).
Read-outs that look alike come from different tables or passages of the source.

Columns and labels:
[1] = target: SARS1 Spike; assay: ELISA, antigen coated on the plate, OD 405 nm
[2] = target: SARS1 Spike; assay: ELISA, antigen coated on the plate, OD 405 nm; remark: listed apart in the source

B1: S110 (antibody, V domains shown)
VH: QVQLVESGGGLVQAGGSLRLSCAASGRTFSSAGMAWFRQAPGKEREFVATSNWNGGDTDYADSVKGRFTISRDNAKNTVYLQMNNLKPEDTAVYYCAAHLQKYGGDYYARIWGQGTQVTVS
In the case of B1, the “EC50 (read off the curve)” value [1] is reported as roughly 0.03 µg/mL and the “EC50 (read off the curve)” value [2] is reported as roughly 0.03 µg/mL.
